Test results published in PMC7041689.

Tests used:
CyPet-XCTK2 (Xenopus) = CyPet-XCTK2 (Xenopus) (UniProt P79955); assay: FRET or BRET
[1] = target: 6His-YPet-XCTK2-Tail (Xenopus) (UniProt P79955); assay: co-sedimentation
YPet-XCTK2 (Xenopus) = YPet-XCTK2 (Xenopus) (UniProt P79955); assay: FRET or BRET
microtubules = assay: co-sedimentation

6His-importin α-YPet (natural protein)
fold decrease of Kd with importin β against without importin β (CyPet-XCTK2 (Xenopus)): 5 fold

importin α-6His (natural protein)
percent decrease of the amount of YPet-XCTK2-Tail bound to MTs (1× importin α/β) [1]: 46%
percent decrease of the amount of YPet-XCTK2-Tail bound to MTs (4× importin α/β) [1]: 53%

importin α-CyPet (natural protein)
mean line scan CyPet lifetime (importin α-CyPet + Ran without YPet 1.68) (YPet-XCTK2 (Xenopus)): 1.55 ns

B1: 6His-YPet-XCTK2-Tail (domain or fragment)
chain: DSTDKKVQVASRLPVPPKRKYVSNDENQEQMQRKRLRSSLESELPAVRVAASIATSKPRAAPVAALPKPQVIGRQSLAVMRPKNSGPGITSTSFSGKTKVSSSVTQPAAIGAEKKKRAA
fold increase of Kd with 4× importin α/β against no importin α/β (microtubules): 10 fold
